Measurements taken from patent US20240254222A1 (Bayer, published 2024).

T1: Human Semaphorin3A-Sema Domain, TPP-19068 (human, UniProt Q14563 21-569)
T1 construct: produced inhouse in HEK293-6E; also called human monovalent Sema3A domain
T1 sequence: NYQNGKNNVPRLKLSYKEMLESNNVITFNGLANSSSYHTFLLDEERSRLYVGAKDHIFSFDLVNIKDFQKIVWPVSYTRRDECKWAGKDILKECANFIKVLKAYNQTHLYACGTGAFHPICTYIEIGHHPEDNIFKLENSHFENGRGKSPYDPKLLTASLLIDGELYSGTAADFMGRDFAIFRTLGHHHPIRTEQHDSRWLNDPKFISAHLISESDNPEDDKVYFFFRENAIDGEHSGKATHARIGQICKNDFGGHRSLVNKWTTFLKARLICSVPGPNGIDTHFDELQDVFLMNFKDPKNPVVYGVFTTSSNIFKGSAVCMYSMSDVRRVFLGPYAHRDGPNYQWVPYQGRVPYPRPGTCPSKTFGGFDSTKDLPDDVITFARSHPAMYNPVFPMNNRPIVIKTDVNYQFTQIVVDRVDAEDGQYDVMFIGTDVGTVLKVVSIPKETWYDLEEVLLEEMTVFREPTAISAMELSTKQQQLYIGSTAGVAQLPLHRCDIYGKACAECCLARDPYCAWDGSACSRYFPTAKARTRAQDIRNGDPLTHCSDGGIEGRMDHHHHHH

T2: Mouse Semaphorin3A-Sema Domain, TPP-19069 (mouse, UniProt O08665 21-569)
T2 construct: produced inhouse
T2 sequence: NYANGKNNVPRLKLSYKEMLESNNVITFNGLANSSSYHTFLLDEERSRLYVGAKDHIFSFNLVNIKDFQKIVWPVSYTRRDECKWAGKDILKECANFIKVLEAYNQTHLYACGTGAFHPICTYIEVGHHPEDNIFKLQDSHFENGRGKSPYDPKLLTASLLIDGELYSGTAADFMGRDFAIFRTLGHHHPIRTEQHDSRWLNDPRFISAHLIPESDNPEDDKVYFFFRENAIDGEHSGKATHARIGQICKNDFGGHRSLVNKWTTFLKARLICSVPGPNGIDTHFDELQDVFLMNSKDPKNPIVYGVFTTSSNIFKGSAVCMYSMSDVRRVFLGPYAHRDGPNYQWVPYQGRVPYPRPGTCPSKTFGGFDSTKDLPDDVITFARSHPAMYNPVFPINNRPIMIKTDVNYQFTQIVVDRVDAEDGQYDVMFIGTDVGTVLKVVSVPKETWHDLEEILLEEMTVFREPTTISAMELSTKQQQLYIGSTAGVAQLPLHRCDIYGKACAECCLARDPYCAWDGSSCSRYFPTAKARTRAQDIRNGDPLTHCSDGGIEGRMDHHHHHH


Key:
[1] = target: Human Semaphorin3A-Fc (R&D Systems), TPP-13211 (human); experiment: cell-based or functional assay
[2] = target: T1, Human Semaphorin3A-Sema Domain, …; experiment: SPR, captured antibody, Sema3A domain analyte
Protocol: (§1) To assess the binding kinetics and affinity of anti-Sema3A antibodies as well as their species cross-reactivity profile, binding assays were conducted using surface plasmon resonance (SPR). Binding assays were performed on a Biacore T200 instrument or on a Biacore 8K+ instrument (Cytiva) at 25° C. using assay buffer HBS P+, 300 mM NaCl, 0.75 mM CaCl₂, 2.5 mM MgCl₂, 1 mg/ml BSA, 0.05% NaN₃. Antibodies were captured either via anti-human Fc IgGs (“Human antibody capture kit”, Order No. BR100839, Cytiva) or in case of Fc-tagged analytes by anti-human Fab IgGs (“Human Fab capture kit”, Order No. 28958325, Cytiva) covalently amine coupled to a Series S CM5 sensor chip (Cytiva). The amine coupling was carried out according to the manufacturer's instructions using 1-ethyl-3-(3-dimethylaminopropyl) carbodiimide hydrochloride (EDC), N-hydroxysuccinimide (NHS) and ethanolamine HCl, pH 8.5 (“Amine Coupling Kit” BR-1000-50, Cytiva.). For phage display hits Fc-tagged human and mouse Sema3A was used as analytes in a concentration range from 1.56-200 nM. Human, mouse, cynomolgus, rat, dog and pig monovalent Sema3A domain were used as analytes in a concentration series from […] in multi cycle kinetics mode or in 100 nM for binding analysis only. The sensor surface was regenerated with glycine pH 2.0 after each antigen injection. Obtained sensorgrams were double referenced (subtraction of reference flow cell signal and buffer injection) and were fitted to a 1:1 Langmuir binding model to derive kinetic data using the Biacore T200 Evaluation software.

[3] = target: T2, Mouse Semaphorin3A-Sema Domain, …; experiment: SPR, captured antibody, Sema3A domain analyte
Protocol: as §1

[4] = target: T3, Human Semaphorin3A-Fc (R&D Systems), TPP-13211 (human); experiment: competition ELISA on coated TPP-13211, competitor biotinylated TPP-15370
T3 construct: R&D Systems 1250-S3; also called recombinant human Sema3A-Fc chimera
T3 sequence (chain, as listed by the source limits assumed): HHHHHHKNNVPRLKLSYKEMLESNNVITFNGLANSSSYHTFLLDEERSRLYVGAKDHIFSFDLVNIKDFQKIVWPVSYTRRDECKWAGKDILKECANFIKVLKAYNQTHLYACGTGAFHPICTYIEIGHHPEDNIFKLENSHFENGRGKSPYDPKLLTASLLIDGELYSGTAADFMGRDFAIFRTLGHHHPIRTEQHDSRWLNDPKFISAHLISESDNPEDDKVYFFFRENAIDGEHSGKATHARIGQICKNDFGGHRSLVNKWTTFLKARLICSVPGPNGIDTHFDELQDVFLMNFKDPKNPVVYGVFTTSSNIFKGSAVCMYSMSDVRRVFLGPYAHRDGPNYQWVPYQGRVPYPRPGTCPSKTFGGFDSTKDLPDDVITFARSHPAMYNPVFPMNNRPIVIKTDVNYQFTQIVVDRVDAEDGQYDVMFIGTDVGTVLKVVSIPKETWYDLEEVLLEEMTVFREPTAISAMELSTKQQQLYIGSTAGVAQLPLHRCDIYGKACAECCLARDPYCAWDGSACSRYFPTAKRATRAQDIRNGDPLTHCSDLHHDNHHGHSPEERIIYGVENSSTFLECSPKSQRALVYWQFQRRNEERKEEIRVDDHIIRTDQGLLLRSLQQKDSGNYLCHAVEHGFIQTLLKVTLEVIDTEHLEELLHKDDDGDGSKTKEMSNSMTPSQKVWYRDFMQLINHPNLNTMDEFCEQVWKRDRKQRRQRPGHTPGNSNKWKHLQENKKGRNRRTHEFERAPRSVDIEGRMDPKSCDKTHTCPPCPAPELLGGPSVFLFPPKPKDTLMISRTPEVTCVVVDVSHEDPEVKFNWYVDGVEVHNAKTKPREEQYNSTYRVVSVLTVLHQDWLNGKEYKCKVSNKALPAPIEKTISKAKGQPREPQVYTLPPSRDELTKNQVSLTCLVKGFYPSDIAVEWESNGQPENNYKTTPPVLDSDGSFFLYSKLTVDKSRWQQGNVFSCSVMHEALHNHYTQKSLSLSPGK
Protocol: For screening in a competition ELISA setup, human Sema3a (TPP-13211) was coated onto 384-well plates (Greiner bio-one, 781077) with a concentration of 0.5 μg/ml in coating buffer (Carbonate-Basis pH 9.6, Candor 121125) over night at 10° C. After washing the plates 3 times with 50 μl PBS 0.05% Tween the plates were blocked with 50 μl Smart Block® (Candor 113500) for 1 h at 20° C. and washed again 3 times as described.
Subsequently, 20 μl of pre-mixed antibody solution was added to the plates and incubate for 18 h at 10° C. […] The total concentration of the added antibody solution was 0.25 μg/ml. During the incubation time the antibodies bound to the plates in a competitive manner as they compete for the same epitope on the human Sema3A protein.
After subsequent washing with 50 μl PBS 0.05% Tween for 3 times, 20 μl of a Streptavidin-HRP solution (R&D Systems, DY998, 1:200 in PBS 0.05% Tween 10% Smart Block) were added and incubated for 1 h and 20° C. followed by subsequent washing 3 times with 50 μl PBS 0.05% Tween and addition of 20 μl Amplex Red solution (Invitrogen A12222, 1:1000 in NaP-buffer 50 mM pH7.6 with 1:10000 of 30% H2O2). After a final incubation for 20 min at 20° C. the signal was determined using an emission wavelength of 595 nm and excitation of 530 nm.

[5] = target: T3, Human Semaphorin3A-Fc (R&D Systems), …; experiment: ELISA, coated Sema3A-Fc, antibody 0.00015-10 ug/ml
Protocol: For the assessment of binding selectivity to Sema3A vs Sema3G, 1 nM recombinant human Sema3A-Fc chimera (R&D Systems) or recombinant human GST—Sema3G (Abnova) were coated on Maxisorb plates, incubated with antibodies in a dose-response curve from 0.00015-10 μg/ml, and the binding of antibodies quantified using HRP coupled anti-human antiserum and chemiluminescent substrate.

Binder	EC50 [nM], MCM assay [1] [nM]	Kd [2] [nM]	Kd [3] [nM]	VAL norm to TPP-9809 (1 to 1 ratio) [4]	VAL norm to TPP-9809 (1 to 5 ratio) [4]	EC50 [5] [nM]	binding result [2]	binding result [3]
TPP-17755 (antibody, human IgG1, lambda, V domains shown, also called Samsung; Samsung Prior Art F11) VH: EVQLLESGGGLVQTGGSLRLSCAASGFTFSDYAMSWVRQAPGKGLEWVSWIYYDSGSKYYADSVKGRFTISRDNSKNTLYLQMNSLRAEDTAVYYCAKLNGDFDYWGQGTLVTVSS VL: QSVLTQPPSASGTPGQRVTISCSGSSSNIGNNDVSWYQQLPGTAPKLLIYADSHRPSGVPDRFSGSKSGTSASLAISGLRSEDEADYYCGAWDSSLSGYVFGGGTKLTVLG	11.3	6.9	3.9					
TPP-23345 (antibody, human IgG4 S228P, lambda, V domains shown) VH: EVQLLESGGGLVQPGGSLRLSCAASGFTFSSYAMSWVRQAPGKGLEWVSAIGYGGDTYYADSVKGRFTISRDNSKNTLYLQMNSLRAEDTAVYYCARRDDYTSRDAFDYWGQGTLVTVSS VL: not shown	0.93	0.065	0.063	0.27	0.08			
TPP-23346 (antibody, human IgG4 S228P, lambda, V domains shown) VH: EVQLLESGGGLVQPGGSLRLSCAASGFTFYSYAMLWVRQAPGKGLEWVSAIGTGGDTYYADSVKGRFTISRDNSKNTLYLQMNSLRAEDTAVYYCARRDDYTSRDAFDYWGQGTLVTVSS VL: not shown	1.27	0.072	0.064	0.22	0.13			
TPP-15370 (antibody, human IgG1, lambda, V domains shown, human IgG1; also called IgG1, hit from panning; parental mAb) VH: EVQLLESGGGLVQPGGSLRLSCAASGFTFSSYGMHWVRQAPGKGLEWVSAIGTGGDTYYADSVMGRFTISRDNSKNTLYLQMNSLRAEDTAVYYCARRDDYTSRDAFDVWGQGTLVTVSS VL: not shown	4.13	10	7.2	0.67	0.54			
TPP-30788 (antibody, human IgG1, kappa, V domains shown, prior art, WO 2020/225400; also called BI clone I; Böhringer (BI) Clone I) VH: EVQLVESGGGLVQPGGSLRLSCAASGFTFSSYYMSWVRQAPGKGLEWVSTIIKSGGYAYYPDSVKDRFTISRDNSKNTLYLQMSSLRAEDTAVYYCVRGGQGAMDYWGQGTTVTVSS VL: EIVLTQSPATLSLSPGERATLSCRASQSIGDYLHWYQQKPGQAPRLLIKYASQSISGIPARFSGSGSGTDFTLTITSLEPEDFAVYYCQQGYSFPYTFGGGTKLEIKR	1.43	0.018	0.043			0.15		
TPP-30789 (antibody, human IgG1, kappa, V domains shown, prior art, WO 2020/225400; also called BI clone II; Böhringer (BI) Clone II) VH: EVQLVESGGGLVQPGGSLRLSCAASGFPFSSYYMSWVRQAPGKGLEWVSTIIKSGGYAYYPDSVKDRFTISRDNSKNTLYLQMSSLRAEDTAVYYCVRGGQGAMDYWGQGTTVTVSS VL: EIVLTQSPATLSLSPGERATLSCRASQSIGDYLHWYQQKPGQAPRLLIKYASQSISGIPARFSGSGSGTDFTLTITSLEPEDFAVYYCQQGYSFPYTFGGGTKLEIKR		0.022	0.042			0.1		
TPP-30790 (antibody, human IgG1, kappa, V domains shown, prior art, WO 2020/225400; also called BI clone III; Böhringer (BI) Clone III) VH: EVQLVESGGGLVQLGGSLRLSCAASGFTFSSYYMSWVRQAPGKGLEWVSTIIKSGGYAYYPDSVKDRFTISRDNSKNTLYLQMNSLRAEDTAVYYCVKGGQGAMDYWGQGTTVTVSS VL: EIVLTQSPATLSLSPGERATLSCRASQSIGDYLHWYQQKPGQAPRLLIYYASQSISGIPARFSGSGSGTDFTLTISSLEPEDFAVYYCQQGYSFPYTFGGGTKLEIKR		0.015	0.04			0.08		
TPP-30791 (antibody, human IgG1, kappa, V domains shown, prior art, WO 2020/225400; also called BI clone IV; Böhringer (BI) Clone IV) VH: EVQLVESGGGLLQLGGSLRLSCAASGFTFSSYYMSWVRQAPGKGLEWVSTIIKSGGYAYYPDSVKDRFTISRDNSKNTLNLQMNSLRAEDTAVYYCVKGGQGAMDYWGQGTTVTVSS VL: EIVLTQSPATLSLSPGERATLSCRASQSIGDYLHWYQQKPGQAPRLLIKYASQSISGIPARFSGSGSGTDFTLTISSLEPEDFAVYYCQQGYSFPYTFGGGTKLEIKR		0.012	0.028			0.08		
TPP-11489 (antibody, human IgG1, lambda, human IgG1; also called Chiome; Chiome Prior Art (hIgG1)) heavy: not shown light: SYELTQPPSVSVSPGQTARITCSGGGSYTGSYYYGWYQQKPGQAPVTVIYYNNKRPSDIPERFSGSLSGTTNTLTISGVQAEDEADYYCGSADNSGDAFGTGTKVTVLGQPKAAPSVTLFPPSSEELQANKATLVCLISDFYPGAVTVAWKADSSPVKAGVETTTPSKQSNNKYAASSYLSLTPEQWKSHRSYSCQVTHEGSTVEKTVAPTECS		73	160					
TPP-15374 (antibody, human IgG1, lambda, V domains shown, human IgG1; also called IgG1, hit from panning; parental mAb) VH: EVQLLESGGGLVQPGGSLRLSCAASGFTFSSYEMNWVRQAPGKGLEWVSGISWNSGSIGYADSVKGRFTISRDNSKNTLYLQMNSLRAEDTAVYYCARSGYSSSWFDPDFDYWGQGTLVTVSS VL: QSVLTQPPSASGTPGQRVTISCTGSSSNIGAGYDVHWYQQLPGTAPKLLIYGNSNRPSGVPDRFSGSKSGTSASLAISGLRSEDEADYYCSSYAGSNPYVVFGGGTKLTVLG	5.07	15	8.3					
TPP-30792 (antibody, human IgG1, lambda, V domains shown, IgG1; prior art, WO 2020/261281; also called 3H4 Univ Ramot; 3H4 (Ramot) Clon I) V domain 1: EVQLLESGGGLVQPGGSLRLSCAASGFTFRSYAVHWVRQAPGKGLEWVSSTEGSGVGTSYTDSVKGRFTISRDNSKNTLYLQMNSLRAEDTAVYYCARMLGGGNPLDYLDYWGQGTLVTVSS V domain 2: QSVLTQPPSASGTPGQRVTISCSGSSSNLGEGYDVHWYQQLPGKAPKLLIYYSDFRPSGVSDRFSGSKSGTSASLAISGLQSEDEADYYCAAWDDSLSSQVFGGGTQVTVLG							no binding	no binding
